These results are taken from publication PMC7747622.

For data set [1], the system named is daratumumab (anti-CD38 therapeutic mAb, IgG kappa). Description: SPR. The note with it: SPR: PBS, 2 mM MgCl2 (SB), 6.25-200 nM IgG, 20 ul/min, 1:1 model; ELONA: SuperBlock or ChonBlock, 0.05% Tween 20, 2 mM MgCl2, washes PBS/2 mM MgCl2/0.05% Tween ….
The test system of data set [2] is M-Ig of patient (monoclonal IgG kappa) (human (patient)). In words: SPR. The note with it: 2 mM Mg2+; aptamer immobilized; scrambled channel subtracted; SPR: PBS, 2 mM MgCl2 (SB), 6.25-200 nM IgG, 20 ul/min, 1:1 model; ELONA: SuperBlock or ChonBlock, 0.05% Tween 20, 2 mM MgCl2, washes PBS/2 mM MgCl2/0.05% Tween ….

In the case of “GGAGGCTCTCGGGACGACGGCGCGGCGATTTGGGGTATGGGGAGGGGGTGGGTTGGGTCCATCGCTGCTGACCAGTTGAG [aptD]”, the dissociation constant Kd in data set [1] is 2.67 nM.

In turn, “GGAGGCTCTCGGGACGACGAGTGTGTCAGGTGGATGGACGGTTGGGTTGGGTAGGCAAGGATCGCTGCTGACCAGTTGAG [aptC]” came in with a dissociation constant (Kd) in data set [2] of 1.85 nM.

For orientation: Kd means a measure of binding affinity in units of concentration. Read a high Kd as lower affinity.
